In experiment [1] the target is T1, Pept 02 (GsMTx4 loop2-derived peptide) (Grammostola spatulata, not fully specified (bridges); printed as Trp-Lys-Cys-Asn-Pro-Asn-Asp-Asp-Lys-Cys; cysteine pairing not given here).
T1 chain: WKCNPNDDKC
Description: inside-out patch clamp dose-response (Hill fit, -50 mV). (In general: Patch clamp records ionic current or voltage across a cell membrane.)

Experiment [2] concerns the target T2, GsMTx4 (Grammostola spatulata, UniProt Q7YT39, not fully specified).
T2 chain: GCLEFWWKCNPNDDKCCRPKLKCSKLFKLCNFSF
The description is as above.

Where no end group is shown, it is not given here.

B1: SAKcaC (stretch-activated BK channel) (protein)
chain: not shown
Turning to B1, the Kd in experiment [1] was found to be 0.0238 µM; in experiment [2], 0.0472 µM.

In general, Kd refers to the free concentration of one partner at which half of the binding sites on the other are occupied at equilibrium, for simple one-to-one binding. Lower therefore signals higher affinity.

The values are drawn from publication PMC9449670 (2022).
